Experiments:
p53 DNA binding domain = p53 DNA binding domain (UniProt P04637 94-312); experiment: SPR
[1] = target: fluorescein-labelled p53DBD (UniProt P04637 94-312, fluorescein label (site not stated)); experiment: fluorescence polarisation
Sequence of fluorescein-labelled p53DBD (P04637 94-312): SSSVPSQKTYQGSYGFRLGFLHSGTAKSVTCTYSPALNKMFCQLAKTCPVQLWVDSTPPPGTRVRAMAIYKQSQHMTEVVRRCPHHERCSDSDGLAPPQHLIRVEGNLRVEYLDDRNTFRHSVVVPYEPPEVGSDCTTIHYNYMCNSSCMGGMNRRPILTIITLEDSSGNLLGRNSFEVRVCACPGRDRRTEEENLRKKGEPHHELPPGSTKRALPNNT

Sequence of p53 DNA binding domain (P04637 94-312): as above

Kd (p53 DNA binding domain): 765 ± 30 nM
Kd [1]: 2200 nM
B1: telethonin (natural protein, human, UniProt O15273 1-167, looked up)
chain: MATSELSCEVSEENCERREAFWAEWKDLTLSTRPEEGCSLHEEDTQRHETYHQQGQCQVLVQRSPWLMMRMGILGRGLQEYQLPYQRVLPLPIFTPAKMGATKEEREDTPIQLQELLALETALGGQCVDRQEVAEITKQLPPVVPVSKPGALRRSLSRSMSQEAQRG
